Substitutions are numbered along the chain they refer to. Names and notes keep the numbering of the source. Read-outs that look alike come from different tables or passages of the source.
Assays:
[1] = molecular target: T1, recombinant soluble human IL-6R (human, UniProt P08887 20-365); assay: Standard gp130 ELISA: ICVD mixed with soluble human IL-6R, then IL-6; complex captured on coated gp130 (competition)
T1 construct: extracellular domain; Printed only as 'soluble'; read as the extracellular domain; also called hIL-6R; sIL-6R
T1 sequence (looked up): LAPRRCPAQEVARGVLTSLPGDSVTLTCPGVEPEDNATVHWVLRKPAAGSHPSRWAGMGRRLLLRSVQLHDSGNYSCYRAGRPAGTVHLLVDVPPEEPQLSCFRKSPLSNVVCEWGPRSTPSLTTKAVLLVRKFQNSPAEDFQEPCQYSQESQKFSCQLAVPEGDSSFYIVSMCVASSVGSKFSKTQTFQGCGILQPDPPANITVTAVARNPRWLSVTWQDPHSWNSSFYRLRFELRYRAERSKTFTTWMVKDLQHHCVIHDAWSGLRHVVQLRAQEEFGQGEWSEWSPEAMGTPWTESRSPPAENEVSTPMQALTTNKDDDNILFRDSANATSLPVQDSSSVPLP

[2] = molecular target: T1, recombinant soluble human IL-6R; assay: as above; remark: listed apart in the source
[3] = molecular target: T2, recombinant human TNF (human, UniProt P01375 77-233); assay: Standard TNFR2/TNF interference ELISA: ICVD mixed with human TNF, TNF captured on coated Enbrel (competition)
T2 construct: also called TNF-alpha; TNFα

[4] = molecular target: T2, recombinant human TNF; assay: Standard TNFR2/TNF interference ELISA (competition), against ID32F

T2 sequence (P01375 77-233 limits assumed): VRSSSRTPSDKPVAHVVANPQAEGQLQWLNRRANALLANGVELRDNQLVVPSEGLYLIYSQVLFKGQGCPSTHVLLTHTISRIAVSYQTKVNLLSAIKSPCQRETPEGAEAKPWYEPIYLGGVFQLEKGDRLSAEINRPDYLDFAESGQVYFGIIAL

B1: anti-IL-6R ICVD 7F6 (VHH)
VHH: EVQLVESGGGLVQAGGSTRLTCLASGSISSINVIGWYRQAPGKQRELVAMIGRGEGANYGDFAKGRFTISRDNSKNTVYLQMNSLKPEDTAVYYCYADYEDRDSPFNGSWGQGTQVTVSS
EC50 [1]: 0.15 nM

B2: anti-IL-6R ICVD ID-3V (VHH)
VHH: B1 VHH with R102H
notes: also called 7F6 with R102H
EC50 [1]: 0.16 nM

B3: anti-IL-6R ICVD 5G9 (VHH)
VHH: EVQLVESGGGLVQAGGSTRLTCKASGSIFNINSINVMAWYRQAPGKQRELVAIIGKGGGTNYADFVKGRFTISRDAAKNTVNLQMNSLKPEDTAVYYCYADYEDRDSPFNASWGQGTQVTVSS
EC50 [2]: 0.09 nM

B4: anti-IL-6R ICVD ID-54V (VHH)
VHH: B3 VHH with R105H
notes: also called 5G9 with R105H
EC50 [2]: 0.15 nM

B5: anti-TNF-alpha ICVD ID8F-EV (VHH)
VHH: EVQLVESGGGLVQPGGSLKLSCAASGFDFSSHWMYWVRQAPGKELEWLSEINTNGLITHYGDSVKGRFTVSRNNAANKMYLELTRLEPEDTALYYCARNQKGLNKGQGTQVTVSS
notes: also called Q65B1 with a K59H substitution; K59H; not shown: C-terminal Flag-His6 tag
EC50 [3]: 0.139 nM

B6: anti-TNF-alpha ICVD Q65B1 (VHH)
VHH: B5 VHH with H59K
notes: also called K59; not shown: C-terminal Flag-His6 tag
EC50 [3]: 0.0984 nM

B7: anti-TNF-alpha ICVD ID34F (VHH)
VHH: B5 VHH with K101H
notes: also called Q65B1 with K59H and K101H
binding result [4]: binds

B8: anti-TNF-alpha ICVD ID43F (VHH)
VHH: B5 VHH with H59A
notes: also called Q65B1 with a K59A substitution; K59A; not shown: C-terminal Flag-His6 tag
EC50 [3]: 0.603 nM

B9: anti-TNF-alpha ICVD ID44F (VHH)
VHH: B5 VHH with H59Q
notes: also called Q65B1 with a K59Q substitution; K59Q; not shown: C-terminal Flag-His6 tag
EC50 [3]: 0.245 nM
